Measured values: US20200231684A1 (published 2020)
Blank lines part the entries; values can stand above or below the binder they belong to.

Legend:
human IL-1R1 = molecular target: T1, human IL-1R1 (human, UniProt P14778 18-336, limits assumed); assay: BLI (Fortebio Octet), antibody injected over antigen surface
T1 construct: also called IL-1RI
T1 sequence (looked up): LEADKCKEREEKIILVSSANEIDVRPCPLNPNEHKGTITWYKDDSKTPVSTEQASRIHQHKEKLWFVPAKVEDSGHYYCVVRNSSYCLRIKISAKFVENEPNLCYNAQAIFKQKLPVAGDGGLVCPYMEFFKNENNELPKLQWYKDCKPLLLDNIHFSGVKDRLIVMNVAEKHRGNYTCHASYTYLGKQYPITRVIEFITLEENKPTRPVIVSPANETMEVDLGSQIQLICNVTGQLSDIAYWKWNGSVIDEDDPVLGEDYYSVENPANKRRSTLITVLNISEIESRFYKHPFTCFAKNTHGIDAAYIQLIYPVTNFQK
Experimental: (§1) B) Molecular selectivity over mouse IL-36R and human IL-1R1 The mouse and chimeric anti-IL-36R antibodies were also injected over either a mouse IL-36R or a human IL-1R1 surface at a concentration of 100 nM. The binding signal to mouse IL-36R and to human IL-1R1 for these antibodies measured using the Fortebio Octet (Fortebio, Menlo Park, Calif.) is zero, which indicates these antibodies selectively bind to human IL-36R.

mouse IL-36R = molecular target: T2, mouse IL-36R (mouse, UniProt Q9ERS7 22-338); assay: as above
T2 sequence (looked up): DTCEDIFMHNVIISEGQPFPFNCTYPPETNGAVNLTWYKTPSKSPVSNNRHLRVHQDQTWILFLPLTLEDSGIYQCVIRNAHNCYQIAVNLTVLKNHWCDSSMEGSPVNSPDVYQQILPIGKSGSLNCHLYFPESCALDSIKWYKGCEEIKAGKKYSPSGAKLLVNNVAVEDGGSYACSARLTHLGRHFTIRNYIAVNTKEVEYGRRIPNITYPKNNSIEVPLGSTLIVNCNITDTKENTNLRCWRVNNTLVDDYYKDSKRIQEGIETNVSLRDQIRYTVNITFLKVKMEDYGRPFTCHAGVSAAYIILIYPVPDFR
Experimental: as §1

[1] = molecular target: T3, recombinant human IL-36R (ECD) (human, UniProt Q9HB29 20-332); assay: SPR (ProteOn), recombinant human IL-36R at 7 surface densities, global fit
T3 construct: range 20-332; also called IL-1RL2; IL-1Rrp2
T3 sequence (looked up): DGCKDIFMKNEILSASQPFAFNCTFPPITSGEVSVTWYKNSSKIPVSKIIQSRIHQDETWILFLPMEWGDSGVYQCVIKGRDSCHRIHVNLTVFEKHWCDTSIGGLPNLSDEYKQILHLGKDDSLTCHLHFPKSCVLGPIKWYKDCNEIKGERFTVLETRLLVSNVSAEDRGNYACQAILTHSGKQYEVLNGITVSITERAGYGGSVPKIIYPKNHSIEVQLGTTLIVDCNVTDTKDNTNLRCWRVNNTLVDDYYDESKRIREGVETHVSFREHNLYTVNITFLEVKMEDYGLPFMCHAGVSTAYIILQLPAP
Experimental: A) Kinetics and binding affinities of anti-IL-36R antibodies binding to recombinant human IL-36R were measured using the Proteon (Bio-Rad, Hercules, Calif.) using material generated from hybridoma following single column purification. […] The binding affinities of the mouse antibodies to human IL-36R run at 7 different surface densities (globally fit) is shown in Table 1. Binding of the chimeric anti-IL36R IgGs is equivalent to the respective mouse leads.

[2] = molecular target: T3, recombinant human IL-36R (ECD); assay: SPR (ProteOn), single IL-36R surface coat concentration
Experimental: A) Kinetics and binding affinities of anti-IL-36R antibodies binding to recombinant human IL-36R were measured using the Proteon (Bio-Rad, Hercules, Calif.) using material generated from hybridoma following single column purification. […] Binding of the chimeric anti-IL36R IgGs is equivalent to the respective mouse leads.

human IL-36R on cells [3] = molecular target: T4, human IL-36R on cells (human, UniProt Q9HB29 20-575); assay: cell-based or functional assay
T4 sequence (looked up): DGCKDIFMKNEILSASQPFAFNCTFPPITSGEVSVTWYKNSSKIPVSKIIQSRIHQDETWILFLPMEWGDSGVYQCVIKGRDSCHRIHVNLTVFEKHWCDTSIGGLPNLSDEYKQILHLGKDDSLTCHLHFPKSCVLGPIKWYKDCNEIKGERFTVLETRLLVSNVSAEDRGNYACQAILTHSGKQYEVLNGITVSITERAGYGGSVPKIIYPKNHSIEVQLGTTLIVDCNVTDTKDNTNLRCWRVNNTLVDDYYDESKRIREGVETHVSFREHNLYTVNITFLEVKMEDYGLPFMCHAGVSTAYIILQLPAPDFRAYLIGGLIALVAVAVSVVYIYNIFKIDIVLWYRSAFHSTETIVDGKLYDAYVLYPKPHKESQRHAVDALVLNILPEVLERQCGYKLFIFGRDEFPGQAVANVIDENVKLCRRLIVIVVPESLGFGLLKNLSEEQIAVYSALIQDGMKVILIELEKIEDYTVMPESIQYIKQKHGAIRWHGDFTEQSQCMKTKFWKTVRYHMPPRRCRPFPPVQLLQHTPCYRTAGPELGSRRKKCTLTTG

human IL-36R on cells [4] = molecular target: T4, human IL-36R on cells; assay: flow cytometry, HEK293 cells transfected with full-length human IL-36R
Experimental: HEK293 cells transfected with full-length human IL-36R or NCI/ADR-RES cells were passaged for 24 hours prior to staining. Cells were removed from flasks by rinsing with 10 ml of 5 mM EDTA in PBS, and then incubated at 37° C. for 10 min with an additional 10 ml of 5 mM EDTA and 2.5 ml of Accumax to declump/disperse cells. Antibodies were then diluted to specified concentrations in PBS+2% BSA, and cells incubated for 20 min at room temperature. Excess antibody was then washed by adding 200 μl of PBS and then centrifuged. Secondary reagent was then added at 50 μl per well and cells are incubated for 15 min at room temperature and then washed as above. Cells were resuspended in 200 μl PBS and analyzed by flow cytometry.

[5] = molecular target: cynomolgus IL-36R on BaF/3 cells (cynomolgus, UniProt A0A2K5WSK9 20-558); assay: cell-based or functional assay
human IL-36R on cells [6] = molecular target: T4, human IL-36R on cells; assay: cell-based or functional assay; remark: listed apart in the source

cynomolgus IL-36R on BaF/3 cells, sequence (A0A2K5WSK9 entry or part of it): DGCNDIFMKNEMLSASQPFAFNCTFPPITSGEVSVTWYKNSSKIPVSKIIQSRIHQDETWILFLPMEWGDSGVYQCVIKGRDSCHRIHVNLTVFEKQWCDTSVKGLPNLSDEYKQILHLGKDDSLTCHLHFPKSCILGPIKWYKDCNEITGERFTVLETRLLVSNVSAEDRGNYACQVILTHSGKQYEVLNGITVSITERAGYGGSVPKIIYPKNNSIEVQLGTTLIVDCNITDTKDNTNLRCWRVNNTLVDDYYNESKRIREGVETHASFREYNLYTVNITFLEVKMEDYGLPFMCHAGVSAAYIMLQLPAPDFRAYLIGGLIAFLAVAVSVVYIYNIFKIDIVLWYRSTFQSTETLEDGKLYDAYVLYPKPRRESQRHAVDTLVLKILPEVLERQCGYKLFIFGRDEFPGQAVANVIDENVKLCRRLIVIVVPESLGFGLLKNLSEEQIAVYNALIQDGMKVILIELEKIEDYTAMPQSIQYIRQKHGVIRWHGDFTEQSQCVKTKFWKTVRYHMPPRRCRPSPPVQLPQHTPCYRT

binding result (human IL-1R1): no binding (tested: 100 nM)
binding result (mouse IL-36R): no binding (tested: 100 nM)
Kd [1]: 0.009 nM
Kd [2]: < 0.1 nM
IC90, IL-8 release, human primary keratinocytes (NHK), trun-IL-36a (human IL-36R on cells [3]): 1.5 nM
IC90, IL-8 release, human primary keratinocytes (NHK), trun-IL-36b (human IL-36R on cells [3]): 3 nM
IC90, IL-8 release, human primary keratinocytes (NHK), trun-IL-36g (human IL-36R on cells [3]): 0.8 nM
IC90, pNFκB, human primary keratinocytes (NHK), trun-IL-36a (human IL-36R on cells [3]): 1.8 nM
IC90, pNFκB, human primary keratinocytes (NHK), trun-IL-36b (human IL-36R on cells [3]): 2.3 nM
IC90, pNFκB, human primary keratinocytes (NHK), trun-IL-36g (human IL-36R on cells [3]): 0.8 nM
EC50 (human IL-36R on cells [4]): 0.475 nM
IC90, pNFκB, BaF/3 cynomolgus IL-36R cells, trun-IL-36a [5]: > 4 µM
IC90, pNFκB, BaF/3 cynomolgus IL-36R cells, trun-IL-36b [5]: > 333 nM
IC90, pNFκB, BaF/3 cynomolgus IL-36R cells, trun-IL-36g [5]: > 333 nM
IC90, GM-CSF release, NCI/ADR-RES cells, trun-IL-36a (human IL-36R on cells [6]): 0.8 nM
IC90, GM-CSF release, NCI/ADR-RES cells, trun-IL-36b (human IL-36R on cells [6]): 0.6 nM
IC90, GM-CSF release, NCI/ADR-RES cells, trun-IL-36g (human IL-36R on cells [6]): 0.5 nM
IC90, IL-6 release, NCI/ADR-RES cells, trun-IL-36a (human IL-36R on cells [6]): 0.8 nM
IC90, IL-6 release, NCI/ADR-RES cells, trun-IL-36b (human IL-36R on cells [6]): 0.5 nM
IC90, IL-6 release, NCI/ADR-RES cells, trun-IL-36g (human IL-36R on cells [6]): 0.3 nM
IC90, IL-8 release, NCI/ADR-RES cells, trun-IL-36a (human IL-36R on cells [6]): 0.6 nM
IC90, IL-8 release, NCI/ADR-RES cells, trun-IL-36b (human IL-36R on cells [6]): 0.6 nM
IC90, IL-8 release, NCI/ADR-RES cells, trun-IL-36g (human IL-36R on cells [6]): 0.5 nM
IC90, pNFκB, NCI/ADR-RES cells, trun-IL-36a (human IL-36R on cells [6]): 1.7 nM
IC90, pNFκB, NCI/ADR-RES cells, trun-IL-36b (human IL-36R on cells [6]): 1.3 nM
IC90, pNFκB, NCI/ADR-RES cells, trun-IL-36g (human IL-36R on cells [6]): 1.1 nM
B1: antibody 33D10 (antibody, V domains shown)
VH: QVQLQQSGTELLKPGASVKLSCKASGNTVTSYWMHWVKQRPGQGLEWIGEILPSTGRTNYNENFKGKAMLTVDKSSSTAYMQLSSLASEDSAVYYCTIVYFGNPWFAYWGQGTLVTVSA
VL: QIVLTQSPAIMSASLGERVTMTCTASSSVSSSYLHWYQKKPGSSPKLWVYSTSNLASGVPVRFSGSGSGTSYSLTISSMEAEDAATYYCHQHHRSPVTFGSGTKLEMK
notes: Mouse monoclonal from hybridoma; also called 33D10B12; Mouse 33D10

binding result (human IL-1R1): no binding (tested: 100 nM)
binding result (mouse IL-36R): no binding (tested: 100 nM)
Kd [1]: 0.016 nM
Kd [2]: < 0.1 nM
EC50 (human IL-36R on cells [4]): 0.28 nM
IC90, pNFκB, BaF/3 cynomolgus IL-36R cells, trun-IL-36a [5]: 0.6 nM
IC90, pNFκB, BaF/3 cynomolgus IL-36R cells, trun-IL-36b [5]: 0.9 nM
IC90, pNFκB, BaF/3 cynomolgus IL-36R cells, trun-IL-36g [5]: 1 nM
IC90, GM-CSF release, NCI/ADR-RES cells, trun-IL-36a (human IL-36R on cells [6]): 1.2 nM
IC90, GM-CSF release, NCI/ADR-RES cells, trun-IL-36b (human IL-36R on cells [6]): 1.2 nM
IC90, GM-CSF release, NCI/ADR-RES cells, trun-IL-36g (human IL-36R on cells [6]): 0.7 nM
IC90, IL-6 release, NCI/ADR-RES cells, trun-IL-36a (human IL-36R on cells [6]): 17 nM
IC90, IL-6 release, NCI/ADR-RES cells, trun-IL-36b (human IL-36R on cells [6]): 5.3 nM
IC90, IL-6 release, NCI/ADR-RES cells, trun-IL-36g (human IL-36R on cells [6]): 0.8 nM
IC90, IL-8 release, NCI/ADR-RES cells, trun-IL-36a (human IL-36R on cells [6]): 1.9 nM
IC90, IL-8 release, NCI/ADR-RES cells, trun-IL-36b (human IL-36R on cells [6]): 0.5 nM
IC90, IL-8 release, NCI/ADR-RES cells, trun-IL-36g (human IL-36R on cells [6]): 0.5 nM
IC90, pNFκB, NCI/ADR-RES cells, trun-IL-36a (human IL-36R on cells [6]): 2.7 nM
IC90, pNFκB, NCI/ADR-RES cells, trun-IL-36b (human IL-36R on cells [6]): 4.2 nM
IC90, pNFκB, NCI/ADR-RES cells, trun-IL-36g (human IL-36R on cells [6]): 2.2 nM
B2: antibody 81A1 (antibody, V domains shown)
VH: QVQLKESGPGLVAPSQSLFITCTVSGFSLSSYEINWVRQVPGKGLEWLGVIWTGITTNYNSALISRLSISKDNSKSLVFLKMNSLQTDDTAIYYCARGTGTGFYYAMDYWGQGTSVTVSS
VL: DIQMTQTTSSLSASLGDRVTISCRASQDIYKYLNWYQQKPDGTLKLLIYYTSGLHSGVPSRFSGSGSGTDFSLTISNLEPEDIATYFCQQDSKFPWTFGGDTKLEIK
notes: Mouse monoclonal from hybridoma; also called 81A1D1; Mouse 81A1
